Measured values reported in the supplement of paper PMC11875167.

Assay: observed amide hydrogen exchange rate constant kobs (stretched exponential fit, FD-normalized) (s^-1); higher = faster H/D exchange (less protection)
Details: pH 3 (pH read); temperature: 20 °C; D2O: 88%
Summary of the method: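 Exchange was started by placing Jurkat tryptic peptides in 88% D2O at pHread 3 and 20 °C, and was stopped with 0.23% formic acid at 13 times from 18 to 93,600 s. HDExaminer processed MS1 uptake from a Q-Exactive HF with no back-exchange correction, normalizing it to full-deuteration controls prepared for 24 h at 37 °C. The fit used a stretched single exponential with β = 0.8. The observed exchange rate constant kobs is defined as the rate from this fit.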

First: IYVGNLPPDIR
Second: IYVLLR
The “observed amide hydrogen exchange rate constant kobs” value of the first is higher: 0.00116 for the first, 0.000454 for the second.

Compared with KLEAAEER, KSDVEAIFSK is lower in “observed amide hydrogen exchange rate constant kobs” value: 0.00257 for the first, 0.000898 for the second.

Going from LAAIAESGVER to LAHEVGWK, the “observed amide hydrogen exchange rate constant kobs” value rises from 0.000919 to 0.00169.

First: LAMQEFMILPVGAANFR
Second: LAPITSDPTEATAVGAVEASFK
The “observed amide hydrogen exchange rate constant kobs” value of the first is lower: 0.000775 for the first, 0.000899 for the second.

Compared with LAVNMVPFPR, LAYINPDLALEEK is higher in “observed amide hydrogen exchange rate constant kobs” value: 0.000639 for the first, 0.00137 for the second.

Compared with LDGLVETPTGYIESLPR, LDIDSPPITAR is higher in “observed amide hydrogen exchange rate constant kobs” value: 0.000897 for the first, 0.00107 for the second.

Compared with LDNLVAILDINR, LEEDINSSMTNSTAASRPPVTLR is higher in “observed amide hydrogen exchange rate constant kobs” value: 0.00063 for the first, 0.00139 for the second.

Compared with LEEDISSSMTNSTAASRPPVTLR, LFFLQVK is lower in “observed amide hydrogen exchange rate constant kobs” value: 0.00131 for the first, 0.00042 for the second.

First: LFIGGLNTETNEK
Second: LFIGGLSFETTDDSLREHFEK
The “observed amide hydrogen exchange rate constant kobs” value of the first is lower: 0.00144 for the first, 0.00239 for the second.

First: LFQECCPHSTDR
Second: LFVGGLK
The “observed amide hydrogen exchange rate constant kobs” value of the first is higher: 0.00299 for the first, 0.000811 for the second.

Going from LGDVYVNDAFGTAHR to LGEMWNNTAADDKQPYEK, the “observed amide hydrogen exchange rate constant kobs” value falls from 0.00197 to 0.00171.

Compared with LGEWVGLCK, LGFAGLVQEISFGTTK is higher in “observed amide hydrogen exchange rate constant kobs” value: 0.000773 for the first, 0.001 for the second.

Compared with LGGSAVISLEGKPL, LGGSLADSYLDEGFLLDK is higher in “observed amide hydrogen exchange rate constant kobs” value: 0.000716 for the first, 0.00175 for the second.

First: LGIHEDSTNR
Second: LHFFMPGFAPLTSR
The “observed amide hydrogen exchange rate constant kobs” value of the first is higher: 0.00441 for the first, 0.00112 for the second.

Going from LIAPVAEEEATVPNNK to LIDDMVAQVLK, the “observed amide hydrogen exchange rate constant kobs” value falls from 0.00102 to 0.000612.

First: LIINSLYK
Second: LILPHVDIQLK
The “observed amide hydrogen exchange rate constant kobs” value of the first is lower: 0.00064 for the first, 0.000852 for the second.

First: LISWYDNEFGYSNR
Second: LLDVVHPAAK
The “observed amide hydrogen exchange rate constant kobs” value of the first is higher: 0.00164 for the first, 0.00126 for the second.

Compared with LLEPVLLLGK, LLEVEHPAAK is higher in “observed amide hydrogen exchange rate constant kobs” value: 0.000574 for the first, 0.00188 for the second.

Compared with LLGELLQDNAK, LLIHQSLAGGIIGVK is higher in “observed amide hydrogen exchange rate constant kobs” value: 0.000855 for the first, 0.000892 for the second.

Going from LLLPGELAK to LLLPWLEAR, the “observed amide hydrogen exchange rate constant kobs” value falls from 0.000859 to 0.00056.

First: LLQDFFNGK
Second: LMDVGLIAIR
The “observed amide hydrogen exchange rate constant kobs” value of the first is lower: 0.00068 for the first, 0.000707 for the second.

Compared with LMGLEALK, LMIEMDGTENK is higher in “observed amide hydrogen exchange rate constant kobs” value: 0.000548 for the first, 0.00222 for the second.

Going from LNEHFLNTTDFLDTIK to LNGTDPEDVIR, the “observed amide hydrogen exchange rate constant kobs” value rises from 0.00161 to 0.00197.

First: LNLVQR
Second: LQAALDDEEAGGRPAMEPGNGSLDLGGDSAGR
The “observed amide hydrogen exchange rate constant kobs” value of the first is lower: 0.000854 for the first, 0.00232 for the second.

Compared with LQAVEVVITHLAPGTK, LRQPFFQK is higher in “observed amide hydrogen exchange rate constant kobs” value: 0.000819 for the first, 0.00093 for the second.

Going from LTDCVVMRDPASK to LTGMAFR, the “observed amide hydrogen exchange rate constant kobs” value rises from 0.000824 to 0.00159.

First: LTLHGLQQYYVK
Second: LVIEEAER
The “observed amide hydrogen exchange rate constant kobs” value of the first is lower: 0.000933 for the first, 0.00116 for the second.

First: LVIITAGAR
Second: LVILANNCPALR
The “observed amide hydrogen exchange rate constant kobs” value of the first is lower: 0.000717 for the first, 0.00112 for the second.

Compared with LVINGNPITIFQERDPSK, LVKQELK is lower in “observed amide hydrogen exchange rate constant kobs” value: 0.000923 for the first, 0.000709 for the second.

Compared with LVLVGDGGTGK, LVPGGGATEIELAK is higher in “observed amide hydrogen exchange rate constant kobs” value: 0.000679 for the first, 0.00089 for the second.

First: LVPVGYGIK
Second: LVQAFQFTDK
The “observed amide hydrogen exchange rate constant kobs” value of the first is lower: 0.000648 for the first, 0.00109 for the second.

Compared with LVQDVANNTNEEAGDGTTTATVLAR, LVQGSILK is lower in “observed amide hydrogen exchange rate constant kobs” value: 0.00155 for the first, 0.000721 for the second.

Going from LWDLTTGTTTR to LYQSAGGMPGGMPGGFPGGGAPPSGGASSGPTIEEVD, the “observed amide hydrogen exchange rate constant kobs” value falls from 0.00172 to 0.00113.

Going from MFVGGLSWDTSK to MFVLDEADEMLSR, the “observed amide hydrogen exchange rate constant kobs” value rises from 0.00136 to 0.00164.

Compared with MGANSLER, MINTDLSR is lower in “observed amide hydrogen exchange rate constant kobs” value: 0.00212 for the first, 0.000886 for the second.

Compared with MLVSGAGDIK, MTDQEAIQDLWQWR is lower in “observed amide hydrogen exchange rate constant kobs” value: 0.00135 for the first, 0.000842 for the second.

First: MVLVGDVK
Second: MVNHFIAEFK
The “observed amide hydrogen exchange rate constant kobs” value of the first is lower: 0.000602 for the first, 0.00114 for the second.

First: MVVESAYEVIK
Second: NDLAVVDVR
The “observed amide hydrogen exchange rate constant kobs” value of the first is lower: 0.000759 for the first, 0.000939 for the second.

Compared with NFAFLEFR, NFSDNQLQEGK is higher in “observed amide hydrogen exchange rate constant kobs” value: 0.00106 for the first, 0.00213 for the second.

First: NIEDVIAQGIGK
Second: NIGVDNPAAK
The “observed amide hydrogen exchange rate constant kobs” value of the first is lower: 0.00103 for the first, 0.0014 for the second.

Compared with NIIHGSDSVESAEK, NIPGITLLNVSK is lower in “observed amide hydrogen exchange rate constant kobs” value: 0.00215 for the first, 0.000585 for the second.

Compared with NLDIERPTYTNLNR, NLLSVAYK is lower in “observed amide hydrogen exchange rate constant kobs” value: 0.00136 for the first, 0.00119 for the second.

Compared with NLPFDFTWK, NLPLPPPPPPR is higher in “observed amide hydrogen exchange rate constant kobs” value: 0.00101 for the first, 0.00144 for the second.

First: NMGGPYGGGNYGPGGSGGSGGYGGR
Second: NNQFQALLQYADPVSAQHAK
The “observed amide hydrogen exchange rate constant kobs” value of the first is higher: 0.00223 for the first, 0.000863 for the second.

Compared with NNQITNNQR, NPDDITNEEYGEFYK is higher in “observed amide hydrogen exchange rate constant kobs” value: 0.00134 for the first, 0.00176 for the second.

Compared with NPDDITQEEYGEFYK, NPLPSK is lower in “observed amide hydrogen exchange rate constant kobs” value: 0.00161 for the first, 0.000929 for the second.

Going from NPPGFAFVEFEDPRDAADAVR to NQGGYGGSSSSSSYGSGR, the “observed amide hydrogen exchange rate constant kobs” value rises from 0.00134 to 0.00275.

Going from NQVAMNPTNTVFDAK to NVTLPAVFK, the “observed amide hydrogen exchange rate constant kobs” value falls from 0.000774 to 0.000481.

Compared with NWMNSLGVNPR, PAAPPAPGPGQLTLR is lower in “observed amide hydrogen exchange rate constant kobs” value: 0.000991 for the first, 0.000936 for the second.

Going from PFEVPFLK to PFLNGLTGKPVMVK, the “observed amide hydrogen exchange rate constant kobs” value rises from 0.000569 to 0.000606.

Going from PFLWLAR to PLRLPLQDVYK, the “observed amide hydrogen exchange rate constant kobs” value rises from 0.000665 to 0.000685.

Going from PMPNPNPNHPSSSGSFSDADLADGVSGGEGK to PVGSLAGIGEVLGK, the “observed amide hydrogen exchange rate constant kobs” value falls from 0.00261 to 0.00115.

First: PVHHGVNQLK
Second: PYVEEGLHPQIIIR
The “observed amide hydrogen exchange rate constant kobs” value of the first is higher: 0.00235 for the first, 0.000843 for the second.

First: QDFVQHFSQIVR
Second: QEMQEVQSSR
The “observed amide hydrogen exchange rate constant kobs” value of the first is lower: 0.00117 for the first, 0.00166 for the second.

Compared with QEYDESGPSIVHRK, QFLFRPWDVTK is lower in “observed amide hydrogen exchange rate constant kobs” value: 0.00258 for the first, 0.000828 for the second.

Going from QHYIDLK to QIPQATASMK, the “observed amide hydrogen exchange rate constant kobs” value falls from 0.00137 to 0.00103.

First: QITVNDLPVGR
Second: QIVWNGPVGVFEWEAFAR
The “observed amide hydrogen exchange rate constant kobs” value of the first is lower: 0.000932 for the first, 0.00105 for the second.

Going from QLFHPEQLITGK to QQISLATQMVR, the “observed amide hydrogen exchange rate constant kobs” value rises from 0.00131 to 0.00147.

First: QSKPVTTPEEIAQVATISANGDK
Second: QSLGELIGTLNAAK
The “observed amide hydrogen exchange rate constant kobs” value of the first is higher: 0.000917 for the first, 0.000915 for the second.

First: QTVAVGVIK
Second: QVVESAYEVIK
The “observed amide hydrogen exchange rate constant kobs” value of the first is lower: 0.000426 for the first, 0.000781 for the second.

First: RAAEDDEDDDVDTKK
Second: RALEQQVEEMK
The “observed amide hydrogen exchange rate constant kobs” value of the first is higher: 0.0039 for the first, 0.000806 for the second.

Going from RAPFDLFENK to REEEEFNTGPLSVLTQSVK, the “observed amide hydrogen exchange rate constant kobs” value falls from 0.00167 to 0.00112.

First: RFDDAVVQSDMK
Second: RGILTLK
The “observed amide hydrogen exchange rate constant kobs” value of the first is higher: 0.00151 for the first, 0.000691 for the second.

Going from RGLEVNK to RHLTGEFEK, the “observed amide hydrogen exchange rate constant kobs” value rises from 0.00164 to 0.00392.

First: RLNINAAK
Second: RNTTIPTK
The “observed amide hydrogen exchange rate constant kobs” value of the first is lower: 0.000596 for the first, 0.00112 for the second.

Compared with RSELIAK, RVHPVSTMIK is higher in “observed amide hydrogen exchange rate constant kobs” value: 0.000984 for the first, 0.00129 for the second.

Compared with RVIISAPSADAPMFVMGVNHEK, RVLIAAHGNSLR is higher in “observed amide hydrogen exchange rate constant kobs” value: 0.000994 for the first, 0.00149 for the second.

Compared with SADTLWDIQK, SADTLWGIQK is higher in “observed amide hydrogen exchange rate constant kobs” value: 0.000935 for the first, 0.000987 for the second.

Going from SAEFLLHMLK to SDALETLGFLNHYQMK, the “observed amide hydrogen exchange rate constant kobs” value rises from 0.00118 to 0.00133.

First: SESPKEPEQLRK
Second: SFFTDDDK
The “observed amide hydrogen exchange rate constant kobs” value of the first is lower: 0.00165 for the first, 0.0032 for the second.

Compared with SFYPEEVSSMVLTK, SGYLAGDK is higher in “observed amide hydrogen exchange rate constant kobs” value: 0.000867 for the first, 0.00168 for the second.

First: SIEVIENR
Second: SINPDEAVAYGAAVQAAILSGDK
The “observed amide hydrogen exchange rate constant kobs” value of the first is higher: 0.000822 for the first, 0.000731 for the second.

First: SIQFVDWCPTGFK
Second: SIYGEK
The “observed amide hydrogen exchange rate constant kobs” value of the first is higher: 0.00182 for the first, 0.00146 for the second.

Compared with SIYYITGESK, SLADELALVDVLEDK is lower in “observed amide hydrogen exchange rate constant kobs” value: 0.00108 for the first, 0.00105 for the second.

Compared with SLAGSSGPGASSGTSGDHGELVVR, SLEGDLEDLK is lower in “observed amide hydrogen exchange rate constant kobs” value: 0.00237 for the first, 0.00103 for the second.

Going from SLTNDWEDHLAVK to SNEILTAIIQGMR, the “observed amide hydrogen exchange rate constant kobs” value falls from 0.00185 to 0.000423.

Going from SNNVEMDWVLK to SPYQEFTDHLVK, the “observed amide hydrogen exchange rate constant kobs” value rises from 0.000871 to 0.00116.

Compared with SQIHDIVLVGGSTR, SQLDIIIHSLK is lower in “observed amide hydrogen exchange rate constant kobs” value: 0.00136 for the first, 0.000886 for the second.

With SSFYVNGLTLGGQK the “observed amide hydrogen exchange rate constant kobs” value was 0.00091.
